From paper PMC11585782, “The Plastidial Protein Acetyltransferase GNAT1 Forms a Complex With GNAT2, yet Their Interaction Is Dispensable for State Transitions” (Molecular & Cellular Proteomics : MCP, 2024)
One block for each binder: values may come before it.

Tests used:
[1] = molecular target: His6-GNAT2 (Arabidopsis thaliana) (UniProt Q7X9V3)
[2] = molecular target: His6-GNAT2 (Arabidopsis thaliana) (UniProt Q7X9V3); remark: listed apart in the source
[3] = substrate: CC(=O)SCCNC(=O)CCNC(=O)[C@H](O)C(C)(C)COP(=O)(O)OP(=O)(O)OC[C@H]1O[C@@H](n2cnc3c(N)ncnc32)[C@H](O)[C@@H]1OP(=O)(O)O; assay: purified protein; format: biochemical, Arabidopsis thaliana; settings: acetyl-CoA 0-500 µM, 150 mM K-phosphate pH 8.0, 50 mM NaCl, 30 °C
[4] = co-substrate Nα-Ala peptide A-A-Q-G-A-K(ac)-A-A-K(Dnp)-Ahx-r-r-r 100 µM
[5] = co-substrate Nα-Val peptide V-A-Q-G-A-K(ac)-A-A-K(Dnp)-Ahx-r-r-r 100 µM

- acetylation of the Nα-Met peptide by His6-GNAT1 + His6-GNAT2 (1 + 1 μM), effective activity as percent of the hypothetical sum of the single activities [1]: 55%
- acetylation of the Nα-Thr peptide by His6-GNAT1 + His6-GNAT2 (1 + 1 μM), effective activity as percent of the hypothetical sum of the single activities [1]: 73%
- acetylation of the Nα-Val peptide by His6-GNAT1 + His6-GNAT2 (1 + 1 μM), effective activity as percent of the hypothetical sum of the single activities [1]: 76%
- acetylation rate of the Nα-Ala peptide by His6-GNAT1 + His6-GNAT2 (1 + 1 μM), against around 450 nmol ∙ min^-1 expected for additive activity [1]: 250 nmol/min
- lysine acetylation of the Nε-Lys peptide by His6-GNAT1 + His6-GNAT2 (1 + 1 μM), effective activity as percent of the hypothetical sum of the single activities [1]: 93%
- acetylation of the Nα-Ala peptide in the presence of both GNATs, turnover as percent of the hypothetical sum of both individual activities [2]: 53%
B1: His6-GNAT1 (enzyme)
chain: AAMQRKPPSYSISDEDLESRGFLLRRTTEGLNLDQLNSVFAAVGFPRRDTAKIEVALQHTDALLWVEYEKTRRPVAFARATGDGVFNAIIWDVVVDPSFQSCGLGKAVMERLIEDLQVKGICNIALYSEPRVLGFYRPLGFVSDPDGIKGMVFIRKQRNKK

B2: His6-GNAT1 (Arabidopsis thaliana) (protein)
chain: AAMQRKPPSYSISDEDLESRGFLLRRTTEGLNLDQLNSVFAAVGFPRRDTAKIEVALQHTDALLWVEYEKTRRPVAFARATGDGVFNAIIWDVVVDPSFQSCGLGKAVMERLIEDLQVKGICNIALYSEPRVLGFYRPLGFVSDPDGIKGMVFIRKQRNKK
notes: N-terminal His6 (pQE-30), predicted plastid transit peptide (36 N-terminal residues) removed; expressed in E. coli SoluBL21, Ni-NTA
- Km [3, 4]: 137.6 ± 9.8 µM
- kcat [3, 4]: 0.00858 ± 0.00025 s⁻¹

B3: His6-GNAT2 (Arabidopsis thaliana) (protein)
chain: SGFVKNNNSTQLVEPPSIVNDEEEETEPLLPVEFTLVERNLEDGLVEEIIFSSGGEIDVYDLQGLCDKVGWPRRPLVKLAAALKNSYMVATLHSVMKSSSDSDSSEGGDGEKQQEKKLIGMARATSDHAFNATIWDVLVDPEYQGQGLGKALVEKLVRALLQRDIGNISLFADSQVVDFYQNLGFEADPEGIKGMFWYPK
notes: expressed in E. coli, purified
- Km [3, 5]: 23.44 ± 0.32 µM
- kcat [3, 5]: 0.02335 ± 5e-05 s⁻¹
